{
  "source": "patent US20200002414A1",
  "about": "(published 2020)",
  "binders": {"B1": {"name": "conditionally active antibody BAP048 (antibody, V domains shown)", "VH": "EVQLVQSGAEVKKPGESLRISCKGSGYTFTEYTMHWVRQAPGQGLEWMGGINTNNGGTGYNQKFKGRVTISADKSISTAYLQWSSLKASDTAMYYCAHGSLYSYGNSYFDYWGQGTLVTVSS", "VL": "AIQLTQSPSSLSASVGDRVTITCSATSSVSYMHWYLQKPGQSPQLLIYGTSNLASGVPDRFSGSGSGTDFTLKISRVEAEDVGVYYCQQRSSYPFTFGQGTKVEIK"}, "B2": {"name": "LC-G049P (antibody, V domains shown)", "VH": "EVQLQQSGPELVKPGASVKISCKTSGYTFTEYTMHWMKQSHRKSLEWIGGINTNNGGTGYNQKFKGKATLTVDKSSSTAYMELRSLTSEDSAVYFCARGSLYSYGNSYFDYWGQGTLVTVSS", "VL": "QIVLTQSPAIMSASPGEKVTITCSATSSVSYMHWFQQKPGTSPKLWIYPTSNLASGVPARFSGSGSGTSYSLTISRMEAEDAATYYCQQRSSYPFTFGQGTKVEIK"}, "B3": {"name": "LC-Q089E (antibody, V domains shown)", "VH": "B2 VH", "VL": "B2 VL with P49G, Q89E"}, "B4": {"name": "LC-F097D (antibody, V domains shown)", "VH": "B2 VH", "VL": "B2 VL with P49G, F97D"}, "B5": {"name": "LC-S092D (antibody, V domains shown)", "VH": "B2 VH", "VL": "B2 VL with P49G, S92D"}, "B6": {"name": "LC-F097E (antibody, V domains shown)", "VH": "B2 VH", "VL": "B2 VL with P49G, F97E"}, "B7": {"name": "LC-T096D (antibody, V domains shown)", "VH": "B2 VH", "VL": "B2 VL with P49G, T96D"}, "B8": {"name": "LC-R090H (antibody, V domains shown)", "VH": "B2 VH", "VL": "B2 VL with P49G, R90H"}, "B9": {"name": "LC-Y031C (antibody, V domains shown)", "VH": "B2 VH", "VL": "B2 VL with Y31C, P49G"}, "B10": {"name": "LC-S030D (antibody, V domains shown)", "VH": "B2 VH", "VL": "B2 VL with S30D, P49G"}, "B11": {"name": "LC-S092V (antibody, V domains shown)", "VH": "B2 VH", "VL": "B2 VL with P49G, S92V"}},
  "note": "Substitutions are numbered along the chain they refer to. Names and notes keep the numbering of the source.",
  "data": [
    {"target": "T1, mouse Ror2 (mouse, UniProt Q9Z138 34-403, limits assumed)", "T1 construct": "also called mROR2", "T1 sequence (Q9Z138 34-403 limits assumed)": "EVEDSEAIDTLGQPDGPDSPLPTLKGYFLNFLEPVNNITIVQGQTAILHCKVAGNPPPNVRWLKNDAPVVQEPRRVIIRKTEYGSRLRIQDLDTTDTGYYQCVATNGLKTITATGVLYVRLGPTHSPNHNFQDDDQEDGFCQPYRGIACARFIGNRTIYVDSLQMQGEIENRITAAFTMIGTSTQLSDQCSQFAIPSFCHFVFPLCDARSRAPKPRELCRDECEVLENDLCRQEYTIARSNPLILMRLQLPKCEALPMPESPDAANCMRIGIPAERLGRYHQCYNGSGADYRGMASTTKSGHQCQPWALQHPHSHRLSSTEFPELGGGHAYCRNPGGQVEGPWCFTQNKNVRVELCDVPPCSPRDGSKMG", "experiment": "ELISA", "units": {"EC50": "µg/mL"}, "values": [
      {"binder": "B1", "EC50": 7.65}
    ]},
    {"target": "T2, cynomolgus Ror2 (cynomolgus, UniProt A0A7N9D5U8 34-403)", "T2 construct": "also called cynoROR2", "T2 sequence (A0A7N9D5U8 entry or part of it)": "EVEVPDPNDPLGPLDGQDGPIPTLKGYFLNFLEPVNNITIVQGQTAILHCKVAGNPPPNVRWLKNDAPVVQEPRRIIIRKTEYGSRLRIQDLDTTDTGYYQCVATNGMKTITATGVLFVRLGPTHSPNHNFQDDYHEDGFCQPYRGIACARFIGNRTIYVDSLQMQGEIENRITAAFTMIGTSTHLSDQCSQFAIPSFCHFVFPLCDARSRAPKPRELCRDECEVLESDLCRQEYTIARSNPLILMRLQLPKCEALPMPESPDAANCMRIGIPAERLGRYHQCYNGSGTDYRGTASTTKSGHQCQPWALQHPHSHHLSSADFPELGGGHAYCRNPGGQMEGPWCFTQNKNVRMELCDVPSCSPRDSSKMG", "experiment": "ELISA", "units": {"EC50": "µg/mL"}, "values": [
      {"binder": "B1", "EC50": 0.327}
    ]},
    {"target": "T3, human Ror2 (human, UniProt Q01974 34-403, limits assumed)", "T3 construct": "also called hROR2; receptor tyrosine kinase-like orphan receptor 2", "T3 sequence (Q01974 34-403 limits assumed)": "as the sequence (A0A7N9D5U8 entry or part of it) above, with P5L, A212T, T289M, A320T counted along it", "experiment": "ELISA", "units": {"EC50": "µg/mL"}, "values": [
      {"binder": "B1", "EC50": 0.201}
    ]},
    {"target": "T3, human Ror2", "experiment": "ELISA, human Ror2; ratio of signal at pH 6.0 to pH 7.4", "values": [
      {"binder": "B2", "ratio, pH 6.0/7.4": 2.46},
      {"binder": "B3", "ratio, pH 6.0/7.4": 1.74},
      {"binder": "B4", "ratio, pH 6.0/7.4": 1.77},
      {"binder": "B5", "ratio, pH 6.0/7.4": 1},
      {"binder": "B6", "ratio, pH 6.0/7.4": 2.28},
      {"binder": "B7", "ratio, pH 6.0/7.4": 1.59},
      {"binder": "B8", "ratio, pH 6.0/7.4": 2.19},
      {"binder": "B9", "ratio, pH 6.0/7.4": 1.92},
      {"binder": "B10", "ratio, pH 6.0/7.4": 2.91},
      {"binder": "B11", "ratio, pH 6.0/7.4": 1.04}
    ]},
    {"target": "T3, human Ror2", "experiment": "ELISA, human Ror2, pH 6.0", "values": [
      {"binder": "B2", "Affinity ELISA pH 6.0": 0.66},
      {"binder": "B3", "Affinity ELISA pH 6.0": 0.438},
      {"binder": "B4", "Affinity ELISA pH 6.0": 0.19},
      {"binder": "B5", "Affinity ELISA pH 6.0": 1.13},
      {"binder": "B6", "Affinity ELISA pH 6.0": 0.489},
      {"binder": "B7", "Affinity ELISA pH 6.0": 0.755},
      {"binder": "B8", "Affinity ELISA pH 6.0": 0.56},
      {"binder": "B9", "Affinity ELISA pH 6.0": 1.34},
      {"binder": "B10", "Affinity ELISA pH 6.0": 0.733},
      {"binder": "B11", "Affinity ELISA pH 6.0": 1.23}
    ]},
    {"target": "T3, human Ror2", "experiment": "ELISA, human Ror2, pH 7.4", "values": [
      {"binder": "B2", "Affinity ELISA pH 7.4": 0.268},
      {"binder": "B3", "Affinity ELISA pH 7.4": 0.251},
      {"binder": "B4", "Affinity ELISA pH 7.4": 0.107},
      {"binder": "B5", "Affinity ELISA pH 7.4": 1.12},
      {"binder": "B6", "Affinity ELISA pH 7.4": 0.215},
      {"binder": "B7", "Affinity ELISA pH 7.4": 0.474},
      {"binder": "B8", "Affinity ELISA pH 7.4": 0.256},
      {"binder": "B9", "Affinity ELISA pH 7.4": 0.7},
      {"binder": "B10", "Affinity ELISA pH 7.4": 0.252},
      {"binder": "B11", "Affinity ELISA pH 7.4": 1.18}
    ]}
  ]
}
